Two molecules from article doi:10.1101/2020.10.28.360099 (bioRxiv, 2020) can be followed below.

Data set [1] has as its target recombinant jack bean conA precursor (pro-conA) (Canavalia ensiformis (jack bean)). Briefly: crystal structure.
The data set “crystal structure” deals with the molecule itself. Briefly: crystal structure.

As usually defined, the stoichiometry N is the number of molecules, sites or subunits per partner or assembly.

As to “recombinant jack bean conA precursor (pro-conA) (natural protein)”, the stoichiometry N in data set [1] turned out to be 2.

B1: jack bean asparaginyl endopeptidase 1 (CeAEP1) (enzyme, Canavalia ensiformis (jack bean), UniProt P49046 36-475, looked up)
chain: EVGTRWAVLVAGSNGYGNYRHQADVCHAYQLLIKGGVKEENIVVFMYDDIAYNAMNPRPGVIINHPQGPDVYAGVPKDYTGEDVTPENLYAVILGDKSKVKGGSGKVINSNPEDRIFIFYSDHGGPGVLGMPNAPFVYAMDFIDVLKKKHASGGYKEMVIYIEACESGSIFEGIMPKDLNIYVTTASNAQENSFGTYCPGMNPPPPEEYVTCLGDLYSVSWMEDSETHNLKRETVQQQYQSVRKRTSNSNSYRFGSHVMQYGDTNITAEKLYLYHGFDPATVNFPPHNGNLEAKMEVVNQRDAELLFMWQMYQRSNHQPEKKTHILEQITETVKHRNHLDGSVELIGVLLYGPGKSSSVLHSVRAPGLPLVDDWTCLKSMVRVFETHCGSLTQYGMKHMRAFGNVCNSGVSKASMEEACKAACGGYDAGLLYPSNTGYSA
modifications: succinimide intermediate (SNN) modelled at Asp157
As for B1, the “stoichiometry N” value in “crystal structure” turned out to be 2.
